Measured values reported in US20250059282A1 (University of Texas, published 2025).

T1: Mouse PD-L2-Fc (mouse, UniProt Q9WUL5 20-219, limits assumed)
T1 construct: also called murine PD-L2; not shown: Fc
T1 sequence (looked up): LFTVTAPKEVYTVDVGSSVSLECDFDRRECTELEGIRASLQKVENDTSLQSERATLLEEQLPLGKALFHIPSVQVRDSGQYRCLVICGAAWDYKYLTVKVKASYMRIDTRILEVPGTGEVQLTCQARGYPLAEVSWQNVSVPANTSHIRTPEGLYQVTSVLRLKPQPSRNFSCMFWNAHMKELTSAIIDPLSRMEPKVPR

T2: Cyno PD-L2-Fc (cynomolgus, UniProt A0A2K5U5Z4 20-220)
T2 construct: also called cynomolgus PD-L2; not shown: Fc
T2 sequence: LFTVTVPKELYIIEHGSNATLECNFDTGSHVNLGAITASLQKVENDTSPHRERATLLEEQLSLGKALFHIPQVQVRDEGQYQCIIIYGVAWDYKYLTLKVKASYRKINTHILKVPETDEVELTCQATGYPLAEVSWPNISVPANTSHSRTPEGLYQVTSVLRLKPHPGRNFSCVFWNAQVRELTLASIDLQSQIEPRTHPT

T3: human PD-L2 on CHO cells (human, UniProt Q9BQ51 20-273)
T3 sequence: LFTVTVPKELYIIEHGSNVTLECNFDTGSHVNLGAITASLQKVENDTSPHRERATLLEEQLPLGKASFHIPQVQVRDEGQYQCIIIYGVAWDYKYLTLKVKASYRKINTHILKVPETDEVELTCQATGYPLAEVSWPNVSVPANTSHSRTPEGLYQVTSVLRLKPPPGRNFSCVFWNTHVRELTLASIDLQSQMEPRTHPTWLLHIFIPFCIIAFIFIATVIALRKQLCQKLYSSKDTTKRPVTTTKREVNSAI

T4: Human PD-L2-HIS (human, UniProt Q9BQ51 20-220)
T4 construct: also called His-tagged human PD-L2; not shown: His tag
T4 sequence: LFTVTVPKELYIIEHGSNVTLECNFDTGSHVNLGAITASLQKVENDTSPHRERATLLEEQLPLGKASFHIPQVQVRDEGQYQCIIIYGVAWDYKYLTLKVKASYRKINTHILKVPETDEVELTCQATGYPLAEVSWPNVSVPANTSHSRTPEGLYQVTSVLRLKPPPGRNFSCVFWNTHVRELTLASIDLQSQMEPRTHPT

T5: Human b-PD-L2-His (human, UniProt Q9BQ51 20-220, biotinylated (b-); sites not stated)
T5 construct: Antigen of the MSD-SET measurements; also called biotinylated human PD-L2-His; not shown: His tag
T5 sequence: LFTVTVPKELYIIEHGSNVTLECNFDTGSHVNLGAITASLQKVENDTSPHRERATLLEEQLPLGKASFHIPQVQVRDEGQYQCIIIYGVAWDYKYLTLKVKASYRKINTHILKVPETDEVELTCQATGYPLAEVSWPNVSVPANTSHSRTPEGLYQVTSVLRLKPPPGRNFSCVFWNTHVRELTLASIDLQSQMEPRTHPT

T6: Human PD-L2-Fc (human, UniProt Q9BQ51 20-220)
T6 construct: also called dimeric PD-L2; PD-L2 (dimeric ligand); not shown: human IgG1 Fc constant region
T6 sequence: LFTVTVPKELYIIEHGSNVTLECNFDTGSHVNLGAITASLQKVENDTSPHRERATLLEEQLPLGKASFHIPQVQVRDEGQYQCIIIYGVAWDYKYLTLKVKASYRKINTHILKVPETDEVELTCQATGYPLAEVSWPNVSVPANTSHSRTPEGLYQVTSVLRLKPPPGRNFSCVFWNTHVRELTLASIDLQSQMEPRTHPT


Assays:
[1] = biological target: T7, Mouse PD-L1-Fc (mouse, UniProt Q9EP73 19-239, limits assumed); assay: ForteBio, IgG, avid
T7 construct: also called murine PD-L1; not shown: Fc
T7 sequence (Q9EP73 19-239 limits assumed): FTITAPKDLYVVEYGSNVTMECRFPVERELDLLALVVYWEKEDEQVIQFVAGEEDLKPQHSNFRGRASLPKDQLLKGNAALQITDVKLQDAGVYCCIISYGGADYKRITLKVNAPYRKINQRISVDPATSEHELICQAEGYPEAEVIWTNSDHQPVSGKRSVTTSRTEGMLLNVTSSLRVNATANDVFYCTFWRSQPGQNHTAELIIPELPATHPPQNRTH

[2] = biological target: T1, Mouse PD-L2-Fc; assay: ForteBio, IgG, avid
[3] = biological target: T8, Cyno PD-L1-Fc (cynomolgus, UniProt G7PSE7 19-238); assay: ForteBio, IgG, avid
T8 construct: also called cynomolgus PD-L1
T8 sequence (G7PSE7 entry or part of it limits assumed): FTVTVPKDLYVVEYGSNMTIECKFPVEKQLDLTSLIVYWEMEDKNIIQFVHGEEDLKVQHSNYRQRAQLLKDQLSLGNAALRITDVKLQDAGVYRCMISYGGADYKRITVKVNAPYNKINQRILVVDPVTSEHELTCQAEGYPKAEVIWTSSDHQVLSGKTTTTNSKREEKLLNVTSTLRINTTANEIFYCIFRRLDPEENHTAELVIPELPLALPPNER

[4] = biological target: T2, Cyno PD-L2-Fc; assay: ForteBio, IgG, avid
[5] = biological target: human PD-L1 on CHO cells (human, UniProt Q9NZQ7 19-290); assay: cell-based or functional assay
Chain of human PD-L1 on CHO cells (Q9NZQ7 19-290 limits assumed): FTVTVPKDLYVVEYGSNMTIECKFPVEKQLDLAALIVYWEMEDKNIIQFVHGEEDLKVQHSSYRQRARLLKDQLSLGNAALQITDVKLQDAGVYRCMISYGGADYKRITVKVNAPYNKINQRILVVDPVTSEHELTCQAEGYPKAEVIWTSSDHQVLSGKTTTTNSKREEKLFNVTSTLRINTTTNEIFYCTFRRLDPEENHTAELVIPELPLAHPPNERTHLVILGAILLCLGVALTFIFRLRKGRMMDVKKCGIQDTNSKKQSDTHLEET

[6] = biological target: T3, human PD-L2 on CHO cells; assay: cell-based or functional assay
[7] = biological target: T9, Human PD-L1-HIS (human, UniProt Q9NZQ7 19-238); assay: ForteBio, IgG, monovalent
T9 construct: also called HIS-tagged monovalent PD-L1; His-tagged human PD-L1; not shown: His tag
T9 sequence (Q9NZQ7 19-238 limits assumed): as the sequence (G7PSE7 entry or part of it limits assumed) above, with T33A, S34A, N62S, Q68R, R82Q, L173F, A185T, I192T, L215H counted along it

[8] = biological target: T4, Human PD-L2-HIS; assay: ForteBio, IgG, monovalent
[9] = biological target: T5, Human b-PD-L2-His; assay: MSD-SET, Fab, monovalent
Description: Briefly, solution equilibrium titrations (SET) were performed in PBS +0.1% IgG-Free BSA (PBSF) with antigen held constant at 50 pM and incubated with 3- to 5-fold serial dilutions of Fab starting at 20 nM. Antibodies (20 nM in PBS) were coated onto standard bind MSD®-ECL plates overnight at 4° C. or at room temperature for 30 min. Plates were then blocked by BSA for 30 min with shaking at 700 rpm, followed by three washes with wash buffer (PBSF+0.05% Tween 20). SET samples were applied and incubated on the plates for 150 s with shaking at 700 rpm followed by one wash. Antigen captured on a plate was detected with 250 ng/mL sulfotag-labeled streptavidin in PBSF by incubation on the plate for 3 min. The plates were washed three times with wash buffer and then read on the MSD® Sector Imager 2400 instrument using 1× Read Buffer T with surfactant. The percent free antigen was plotted as a function of titrated antibody in Prism and fit to a quadratic equation to extract the KD. To improve throughput, liquid handling robots were used throughout MSD®-SET experiments, including SET sample preparation.

[10] = biological target: T10, Human PD-L1-Fc (human, UniProt Q9NZQ7 19-238); assay: ForteBio, Fab, monovalent
T10 construct: also called dimeric PD-L1; PD-L1 (dimeric ligand); not shown: human IgG1 Fc constant region
T10 sequence (Q9NZQ7 19-238 limits assumed): as the sequence (G7PSE7 entry or part of it limits assumed) above, with T33A, S34A, N62S, Q68R, R82Q, L173F, A185T, I192T, L215H counted along it
Description: (§1) ForteBio KD measurements—ForteBio affinity measurements were performed on an Octet® RED384 generally as previously described (see, e.g., Estep et al., 2013). Briefly, ForteBio affinity measurements were performed by loading IgGs on-line onto AHQ sensors. Sensors were equilibrated off-line in assay buffer for 30 min and then monitored on-line for 60 seconds for baseline establishment. Sensors with loaded IgGs were exposed to 100 nM antigen for 3 minutes, and afterwards were transferred to assay buffer for 3 min for off-rate measurement. For monovalent affinity assessment Fabs were used instead of IgGs. For this assessment the […] Fc fusion antigen was loaded on-line onto the AHQ sensors. Sensors were equilibrated off-line in assay buffer for 30 min and then monitored on-line for 60 seconds for baseline establishment. Sensors with loaded antigen were exposed to 100 nM Fab for 3 minutes, and afterwards they were transferred to assay buffer for 3 min for off-rate measurement. All kinetics were analyzed using the 1:1 binding model.

[11] = biological target: T6, Human PD-L2-Fc; assay: ForteBio, Fab, monovalent
Description: as §1

Row | Kd [1] | Kd [2] | Kd [3] | Kd [4] | EC50 (read off the curve); Fold induction of luciferase, Promega: CHO-PD-L1/PD-L2 dual cells with PD-1 Jurkat reporter cells (PD-L1 and PD-L2 not separable) [5] | EC50 (read off the curve); Fold induction of luciferase, Promega: CHO-PD-L1/PD-L2 dual cells with PD-1 Jurkat reporter cells (PD-L1 and PD-L2 not separable) [6] | Kd [7] | Kd [8] | Kd [9] | Kd [10] | Kd [11] | Binder
1 | 0.793 nM | 4.14 nM | 0.555 nM | 0.417 nM | ~1 nM | ~1 nM | 7.89 nM | 0.889 nM | – | – | – | BiPDL4-44 (antibody, V domains shown, Fourth generation, IgG) VH: QVQLVESGGGVIQPGRSLRLSCAASGFTFSAYLMHWVRQAPGKGLEWVAAIGYDGMNKYYADSVKGRFTISRDNSKNTLYLQMNSLRAEDTAVYYCARAGIEYSYAYTDYWGQGTLVTVSS VL: EIVLTQSPGTLSLSPGERATLSCRASHSVVSSYLAWYQQKPGQAPRLLIYGASSREDGIPDRFSGSGSGTDFTLTISRLEPEDFAVYYCVQFGWWPPRTFGGGTKVEIK
2 | – | – | – | – | – | – | – | – | 0.12 nM | 6.57 nM | 0.475 nM | BiPDL4-24 Fab (Fab, V domains shown, Fab made by papain digestion of the IgG) VH: QVQLVESGGGVVQPGRSLRLSCAASGFTFDEYGMHWVRQAPGKGLEWVAVIGYDGLNKYYADSVKGRFTISRDNSKNTLYLQMNSLRAEDTAVYYCARAGIEYSYAYTDYWGQGTLVTVSS VL: EIVLTQSPGTLSLSPGERATLSCRASNSVVSSYLAWYQQKPGQAPRLLIYGAASRANGIPDRFSGSGSGTDFTLTISRLEPEDFAVYYCVQFGWWPPRTFGGGTKVEIK
3 | 0.677 nM | 6.77 nM | 0.838 nM | 0.458 nM | – | – | 7.24 nM | 0.497 nM | – | – | – | BiPDL4-24 (antibody, V domains shown, Fourth generation, IgG) VH: QVQLVESGGGVVQPGRSLRLSCAASGFTFDEYGMHWVRQAPGKGLEWVAVIGYDGLNKYYADSVKGRFTISRDNSKNTLYLQMNSLRAEDTAVYYCARAGIEYSYAYTDYWGQGTLVTVSS VL: EIVLTQSPGTLSLSPGERATLSCRASNSVVSSYLAWYQQKPGQAPRLLIYGAASRANGIPDRFSGSGSGTDFTLTISRLEPEDFAVYYCVQFGWWPPRTFGGGTKVEIK
4 | – | – | – | – | – | – | – | – | 0.15 nM | 6 nM | 0.437 nM | BiPDL4-44 Fab (Fab, V domains shown, Fab made by papain digestion of the IgG) VH: QVQLVESGGGVIQPGRSLRLSCAASGFTFSAYLMHWVRQAPGKGLEWVAAIGYDGMNKYYADSVKGRFTISRDNSKNTLYLQMNSLRAEDTAVYYCARAGIEYSYAYTDYWGQGTLVTVSS VL: EIVLTQSPGTLSLSPGERATLSCRASHSVVSSYLAWYQQKPGQAPRLLIYGASSREDGIPDRFSGSGSGTDFTLTISRLEPEDFAVYYCVQFGWWPPRTFGGGTKVEIK
